Test results taken from IntAct's records for PubMed 15890343.

Target: otx2_mouse Otx2 (UniProt P80206)
Sequence (P80206 whole entry): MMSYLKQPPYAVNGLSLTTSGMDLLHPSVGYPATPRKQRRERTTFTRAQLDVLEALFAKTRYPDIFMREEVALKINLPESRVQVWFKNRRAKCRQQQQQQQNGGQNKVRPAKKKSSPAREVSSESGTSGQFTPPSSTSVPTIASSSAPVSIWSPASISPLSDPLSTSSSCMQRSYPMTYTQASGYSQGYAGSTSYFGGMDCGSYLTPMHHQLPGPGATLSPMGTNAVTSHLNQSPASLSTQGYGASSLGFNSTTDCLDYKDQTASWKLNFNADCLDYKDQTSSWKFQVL

Chain of Diencephalon/mesencephalon homeobox protein 1 (Mus musculus), Q91ZK4 R122W (Q91ZK4 whole entry R122W): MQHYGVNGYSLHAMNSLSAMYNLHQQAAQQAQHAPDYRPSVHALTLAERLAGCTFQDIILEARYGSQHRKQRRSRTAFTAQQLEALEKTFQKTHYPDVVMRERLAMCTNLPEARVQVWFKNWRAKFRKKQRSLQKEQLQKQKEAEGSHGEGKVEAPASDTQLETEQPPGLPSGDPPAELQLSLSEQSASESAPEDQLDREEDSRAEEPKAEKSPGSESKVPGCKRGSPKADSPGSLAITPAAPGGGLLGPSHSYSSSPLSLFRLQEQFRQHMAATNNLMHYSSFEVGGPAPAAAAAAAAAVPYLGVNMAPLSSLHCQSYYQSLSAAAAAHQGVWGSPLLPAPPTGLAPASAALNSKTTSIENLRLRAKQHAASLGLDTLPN

For “Diencephalon/mesencephalon homeobox protein 1 (Mus musculus), Q91ZK4 R122W”, the “effect of a mutation on the interaction” value was “disrupting interaction”.
